Assay results taken from patent publication US20230212549A1, “COMPOUNDS COMPRISING A […] LIGAND AND USE THEREOF” (priority 2021, published 2023).
Bridge positions count the residues as written; N and C are the ends.

Tests used:
Assay in all cases: cell-based or functional assay
[1] = target: DPP9, Q86TI2
[2] = target: T1, COX2(h) (human), P35354
T1 chain: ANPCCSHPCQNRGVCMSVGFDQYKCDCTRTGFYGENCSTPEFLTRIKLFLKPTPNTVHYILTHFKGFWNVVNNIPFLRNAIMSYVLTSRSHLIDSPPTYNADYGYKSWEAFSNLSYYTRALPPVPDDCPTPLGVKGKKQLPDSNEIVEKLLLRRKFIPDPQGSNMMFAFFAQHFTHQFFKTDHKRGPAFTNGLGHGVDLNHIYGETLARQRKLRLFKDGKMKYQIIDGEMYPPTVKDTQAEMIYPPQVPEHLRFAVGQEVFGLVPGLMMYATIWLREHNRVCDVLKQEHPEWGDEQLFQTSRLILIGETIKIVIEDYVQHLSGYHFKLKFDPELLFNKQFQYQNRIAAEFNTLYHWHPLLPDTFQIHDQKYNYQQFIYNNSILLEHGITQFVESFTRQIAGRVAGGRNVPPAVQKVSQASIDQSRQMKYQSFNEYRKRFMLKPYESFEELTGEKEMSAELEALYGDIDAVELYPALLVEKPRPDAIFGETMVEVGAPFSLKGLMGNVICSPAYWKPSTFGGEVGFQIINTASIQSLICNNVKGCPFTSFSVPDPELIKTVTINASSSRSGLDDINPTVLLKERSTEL

[3] = target: T2, Cathepsin F, Q9UBX1
T2 chain: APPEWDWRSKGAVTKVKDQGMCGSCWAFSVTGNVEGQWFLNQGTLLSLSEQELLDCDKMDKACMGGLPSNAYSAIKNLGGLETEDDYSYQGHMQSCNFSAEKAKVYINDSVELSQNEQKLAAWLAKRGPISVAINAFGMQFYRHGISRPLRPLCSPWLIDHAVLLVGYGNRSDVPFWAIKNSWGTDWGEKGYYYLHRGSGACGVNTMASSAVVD

[4] = target: T3, Caspase-9, P55211
T3 chain: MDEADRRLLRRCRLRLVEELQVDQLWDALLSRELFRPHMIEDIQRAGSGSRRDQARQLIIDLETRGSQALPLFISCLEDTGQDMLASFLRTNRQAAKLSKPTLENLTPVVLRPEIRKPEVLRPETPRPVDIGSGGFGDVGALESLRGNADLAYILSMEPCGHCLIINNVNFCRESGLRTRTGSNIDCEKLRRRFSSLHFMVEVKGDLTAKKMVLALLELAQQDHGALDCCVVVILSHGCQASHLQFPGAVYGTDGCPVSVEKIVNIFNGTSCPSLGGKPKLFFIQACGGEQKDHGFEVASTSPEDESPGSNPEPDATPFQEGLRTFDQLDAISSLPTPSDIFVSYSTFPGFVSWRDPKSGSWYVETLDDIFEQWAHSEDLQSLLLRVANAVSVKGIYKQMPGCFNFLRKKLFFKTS

[5] = target: Ubiquitin carboxy-terminal hydrolase L1, P09936
[6] = target: T4, Ubiquitin carboxyl-terminal hydrolase 5, P45974
T4 chain: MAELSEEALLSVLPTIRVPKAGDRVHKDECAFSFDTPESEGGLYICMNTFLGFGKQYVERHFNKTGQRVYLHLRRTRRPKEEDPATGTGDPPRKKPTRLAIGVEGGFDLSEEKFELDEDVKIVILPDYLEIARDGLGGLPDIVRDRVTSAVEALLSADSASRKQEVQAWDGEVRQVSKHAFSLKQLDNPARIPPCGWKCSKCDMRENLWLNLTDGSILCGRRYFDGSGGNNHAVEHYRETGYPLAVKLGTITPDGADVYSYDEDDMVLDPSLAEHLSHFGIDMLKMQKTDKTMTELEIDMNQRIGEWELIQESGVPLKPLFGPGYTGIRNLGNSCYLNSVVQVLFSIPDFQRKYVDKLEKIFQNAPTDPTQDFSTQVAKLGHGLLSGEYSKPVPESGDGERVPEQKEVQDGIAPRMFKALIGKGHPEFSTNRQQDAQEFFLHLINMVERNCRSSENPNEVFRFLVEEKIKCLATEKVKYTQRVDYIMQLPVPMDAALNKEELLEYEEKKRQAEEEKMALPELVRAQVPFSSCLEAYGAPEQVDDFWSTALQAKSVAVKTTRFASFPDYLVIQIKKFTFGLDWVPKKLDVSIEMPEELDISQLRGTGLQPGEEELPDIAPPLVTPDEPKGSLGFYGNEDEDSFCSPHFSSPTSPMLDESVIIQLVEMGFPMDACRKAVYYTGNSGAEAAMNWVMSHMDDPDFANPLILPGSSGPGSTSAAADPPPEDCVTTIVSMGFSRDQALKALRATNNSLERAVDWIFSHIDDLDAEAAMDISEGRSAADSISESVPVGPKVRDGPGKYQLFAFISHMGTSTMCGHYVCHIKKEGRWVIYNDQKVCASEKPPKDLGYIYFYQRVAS

[7] = target: T5, Ubiquitin carboxy-terminal hydrolase L3, P15374
T5 chain: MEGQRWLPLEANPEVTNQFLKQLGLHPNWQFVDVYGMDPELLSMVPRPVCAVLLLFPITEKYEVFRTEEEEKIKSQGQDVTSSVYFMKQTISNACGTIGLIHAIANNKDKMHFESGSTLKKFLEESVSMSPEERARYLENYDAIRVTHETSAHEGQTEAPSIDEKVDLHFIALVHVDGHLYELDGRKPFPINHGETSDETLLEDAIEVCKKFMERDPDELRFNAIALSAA

[8] = target: Ubiquitin carboxyl-terminal hydrolase 10, Q14694
[9] = target: PDE3A (h) (human), Q14432
PDE3A (h) (human), Q14432, sequence (Q14432 669-1141 limits assumed): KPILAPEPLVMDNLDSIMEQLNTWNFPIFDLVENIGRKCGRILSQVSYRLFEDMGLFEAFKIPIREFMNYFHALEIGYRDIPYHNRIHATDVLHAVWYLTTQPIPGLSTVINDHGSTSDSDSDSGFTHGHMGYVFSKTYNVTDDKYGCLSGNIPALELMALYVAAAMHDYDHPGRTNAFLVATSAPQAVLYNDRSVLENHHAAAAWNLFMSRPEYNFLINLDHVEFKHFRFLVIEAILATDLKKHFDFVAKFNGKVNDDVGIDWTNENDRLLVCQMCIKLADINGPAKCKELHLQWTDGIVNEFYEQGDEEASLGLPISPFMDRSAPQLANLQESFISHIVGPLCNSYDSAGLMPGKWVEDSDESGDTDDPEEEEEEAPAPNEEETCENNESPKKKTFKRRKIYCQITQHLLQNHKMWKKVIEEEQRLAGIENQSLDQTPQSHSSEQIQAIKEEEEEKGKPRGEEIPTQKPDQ

Ubiquitin carboxy-terminal hydrolase L1, P09936, sequence (P09936 whole entry): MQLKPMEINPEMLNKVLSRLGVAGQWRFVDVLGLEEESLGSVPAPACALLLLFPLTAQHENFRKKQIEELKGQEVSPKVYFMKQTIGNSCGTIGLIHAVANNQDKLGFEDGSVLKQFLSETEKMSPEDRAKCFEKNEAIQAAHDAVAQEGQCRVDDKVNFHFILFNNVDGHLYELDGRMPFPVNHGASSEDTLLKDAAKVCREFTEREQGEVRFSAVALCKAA
Ubiquitin carboxyl-terminal hydrolase 10, Q14694, sequence (Q14694 whole entry): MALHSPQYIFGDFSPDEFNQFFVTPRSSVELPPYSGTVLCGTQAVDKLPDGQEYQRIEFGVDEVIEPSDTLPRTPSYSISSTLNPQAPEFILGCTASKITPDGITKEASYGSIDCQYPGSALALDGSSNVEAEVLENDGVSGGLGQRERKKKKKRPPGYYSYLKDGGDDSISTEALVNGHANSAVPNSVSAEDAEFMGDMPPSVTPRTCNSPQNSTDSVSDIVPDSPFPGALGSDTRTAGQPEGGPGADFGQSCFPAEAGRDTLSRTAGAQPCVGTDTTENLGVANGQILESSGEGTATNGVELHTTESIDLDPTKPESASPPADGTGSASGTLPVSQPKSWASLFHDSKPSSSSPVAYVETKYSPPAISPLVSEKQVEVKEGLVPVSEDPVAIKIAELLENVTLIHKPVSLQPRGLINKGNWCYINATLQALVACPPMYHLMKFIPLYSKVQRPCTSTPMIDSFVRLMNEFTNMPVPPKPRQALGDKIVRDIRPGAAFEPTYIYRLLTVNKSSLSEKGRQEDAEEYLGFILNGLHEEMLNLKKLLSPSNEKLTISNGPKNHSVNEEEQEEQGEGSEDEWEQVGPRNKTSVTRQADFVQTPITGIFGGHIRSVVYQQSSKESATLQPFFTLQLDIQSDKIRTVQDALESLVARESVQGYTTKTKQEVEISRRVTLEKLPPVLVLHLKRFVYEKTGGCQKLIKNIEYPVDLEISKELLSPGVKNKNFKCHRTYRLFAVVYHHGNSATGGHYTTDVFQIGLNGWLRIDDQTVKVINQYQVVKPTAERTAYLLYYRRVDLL
DPP9, Q86TI2, sequence (Q86TI2 whole entry): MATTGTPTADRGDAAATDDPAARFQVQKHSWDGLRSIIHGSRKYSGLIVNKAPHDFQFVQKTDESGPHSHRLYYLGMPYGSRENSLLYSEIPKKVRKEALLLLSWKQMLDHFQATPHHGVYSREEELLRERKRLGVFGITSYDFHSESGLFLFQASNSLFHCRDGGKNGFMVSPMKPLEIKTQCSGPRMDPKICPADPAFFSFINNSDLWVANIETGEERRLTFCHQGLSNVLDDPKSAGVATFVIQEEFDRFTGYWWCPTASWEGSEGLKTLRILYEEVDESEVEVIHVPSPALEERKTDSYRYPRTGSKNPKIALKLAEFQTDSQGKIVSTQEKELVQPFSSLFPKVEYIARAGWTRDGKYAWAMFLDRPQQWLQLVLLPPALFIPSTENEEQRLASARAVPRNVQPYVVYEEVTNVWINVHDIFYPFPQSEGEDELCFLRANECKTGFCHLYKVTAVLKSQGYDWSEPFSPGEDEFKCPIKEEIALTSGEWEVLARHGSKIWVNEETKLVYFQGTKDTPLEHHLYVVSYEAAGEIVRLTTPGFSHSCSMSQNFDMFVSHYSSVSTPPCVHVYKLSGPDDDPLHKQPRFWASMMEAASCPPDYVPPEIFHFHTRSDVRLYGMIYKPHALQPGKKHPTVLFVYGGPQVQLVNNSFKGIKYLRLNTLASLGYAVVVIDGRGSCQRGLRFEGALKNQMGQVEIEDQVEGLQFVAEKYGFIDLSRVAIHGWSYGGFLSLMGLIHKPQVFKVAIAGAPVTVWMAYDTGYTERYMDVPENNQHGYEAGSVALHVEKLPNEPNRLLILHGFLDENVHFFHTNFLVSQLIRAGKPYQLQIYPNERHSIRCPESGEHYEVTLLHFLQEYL

B1: Hex-[Cys(tMeBn(DOTA-AET))-Pro-Pro-Thr-Gln-Phe-Cys]-OH (peptide)
peptide: Hex-CPPTQFC-OH
modifications: bridge 1-7; not fully specified (bridges); printed as Hex-[Cys(tMeBn(DOTA-AET))-Pro-Pro-Thr-Gln-Phe-Cys]-OH
Percentage inhibition (%) at 1 µM [1]: -1% | Percentage inhibition (%) at 10 µM [1]: -5% | % inhibition of control enzyme activity, compound at 10 µM [2]: -22% | Percentage inhibition (%) at 1 µM [3]: -23% | Percentage inhibition (%) at 10 µM [3]: -25% | Percentage inhibition (%) at 1 µM [4]: -1% | Percentage inhibition (%) at 10 µM [4]: -2% | Percentage inhibition (%) at 1 µM [5]: -4% | Percentage inhibition (%) at 10 µM [5]: 4% | Percentage inhibition (%) at 1 µM [6]: -4% | Percentage inhibition (%) at 10 µM [6]: -2% | Percentage inhibition (%) at 1 µM [7]: 0% | Percentage inhibition (%) at 10 µM [7]: 0% | Percentage inhibition (%) at 1 µM [8]: 1% | Percentage inhibition (%) at 10 µM [8]: -1% | % inhibition of control enzyme activity, compound at 10 µM [9]: -37%

B2: Hex-[Cys(tMeBn(DOTA-PP))-Pro-Pro-Thr-Gln-Phe-Cys]-Asp-NH2 (peptide)
peptide: Hex-CPPTQFCD-NH2
modifications: bridge 1-7; not fully specified (bridges); printed as Hex-[Cys(tMeBn(DOTA-PP))-Pro-Pro-Thr-Gln-Phe-Cys]-Asp-NH2
Percentage inhibition (%) at 1 µM [1]: -1% | Percentage inhibition (%) at 10 µM [1]: 0% | % inhibition of control enzyme activity, compound at 10 µM [2]: -14% | Percentage inhibition (%) at 1 µM [3]: -3% | Percentage inhibition (%) at 10 µM [3]: -24% | Percentage inhibition (%) at 1 µM [4]: 5% | Percentage inhibition (%) at 10 µM [4]: 8% | Percentage inhibition (%) at 1 µM [5]: -2% | Percentage inhibition (%) at 10 µM [5]: 4% | Percentage inhibition (%) at 1 µM [6]: 3% | Percentage inhibition (%) at 10 µM [6]: 46% | Percentage inhibition (%) at 1 µM [7]: -1% | Percentage inhibition (%) at 10 µM [7]: 14% | Percentage inhibition (%) at 1 µM [8]: -2% | Percentage inhibition (%) at 10 µM [8]: 5% | % inhibition of control enzyme activity, compound at 10 µM [9]: -3%
